# Reference: US20110014669A1, “Production of 1,4 Butanediol in a Microorganism” (Microbia, Inc., priority 2009, published 2011)
# B1: HomCg: Enzyme candidate for BDO biosynthetic pathway step A3, SEQ ID NO. 22 (protein, listed as Corynebacterium glutamicum)
# chain: MTSASAPSFNPGKGPGSAVGIALLGFGTVGTEVMRLMTEYGDELAHRIGGPLEVRGIAVSDISKPREGVAPELLTEDAFALIEREDVDIVVEVIGGIEYPREVVLAALKAGKSVVTANKALVAAHSAELADAAEAANVDLYFEAAVAGAIPVVGPLRRSLAGDQIQSVMGIVNGTTNFILDAMDSTGADYADSLAEATRLGYAEADPTADVEGHDAASKAAILASIAFHTRVTADDVYCEGISNISAADIEAAQQAGHTIKLLAICEKFTNKEGKSAISARVHPTLLPVSHPLASVNKSFNAIFVEAEAAGRLMFYGNGAGGAPTASAVLGDVVGAARNKVHGGRAPGESTYANLPIADFGETTTRYHLDMDVEDRVGVLAELASLFSEQGISLRTIRQEERDDDARLIVVTHSALESDLSRTVELLKAKPVVKAINSVIRLERD
# B2: HomAu: Enzyme candidate for BDO biosynthetic pathway step A3, SEQ ID NO. 24 (protein, listed as Arthrobacter aurescens)
# chain: MSEMRTLKVALLGCGNVGAQVARILIDDAEALAARSGARLELSGIAVRNVDSPRDVELPRELFTTDADTLVKDADLVIELMGGIEPARSLILTAIQNGACVVTGNKALLAQDGPTLYEEADKAGVQLSYEAAVAGAIPILRPIRDSLSGDRITRVLGIVNGTTNFILDQMDSTGAQFADALAEAQRLGYAEADPTADVEGHDAAAKAAILASLSFHTRFSLDDVYCEGITKVSAADIASAKEAGFVIKLLAIAEKIDSSDNGSGISVRVHPTLLPREHPLAAVRGAFNAVFIEAENAGELMFYGQGAGGTPTASAVLGDLVSAARRLVLGGPGRTETTTGHVPALAIDASNTSYYIGLDVADQAGVLARIAHIFAENGVSIEIMRQTIHRDSASNVESAELKIVTHRASEAALAATVEAVKGLDVINSVTSVLRVEGV
# B3: UlaDEc: Enzyme candidate for BDO biosynthetic pathway step A5, SEQ ID NO. 68 (protein, listed as Escherichia coli)
# chain: MSLPMLQVALDNQTMDSAYETTRLIAEEVDIIEVGTILCVGEGVRAVRDLKALYPHKIVLADAKIADAGKILSRMCFEANADWVTVICCADINTAKGALDVAKEFNGDVQIELTGYWTWEQAQQWRDAGIGQVVYHRSRDAQAAGVAWGEADITAIKRLSDMGFKVTVTGGLALEDLPLFKGIPIHVFIAGRSIRDAASPVEAARQFKRSIAELWG
# B4: ARO10Sc: Enzyme candidate for BDO biosynthetic pathway step A5, SEQ ID NO. 70 (protein, listed as Saccharomyces cerevisiae)
# chain: MAPVTIEKFVNQEERHLVSNRSATIPFGEYIFKRLLSIDTKSVFGVPGDFNLSLLEYLYSPSVESAGLRWVGTCNELNAAYAADGYSRYSNKIGCLITTYGVGELSALNGIAGSFAENVKVLHIVGVAKSIDSRSSNFSDRNLHHLVPQLHDSNFKGPNHKVYHDMVKDRVACSVAYLEDIETACDQVDNVIRDIYKYSKPGYIFVPADFADMSVTCDNLVNVPRISQQDCIVYPSENQLSDIINKITSWIYSSKTPAILGDVLTDRYGVSNFLNKLICKTGIWNFSTVMGKSVIDESNPTYMGQYNGKEGLKQVYEHFELCDLVLHFGVDINEINNGHYTFTYKPNAKIIQFHPNYIRLVDTRQGNEQMFKGINFAPILKELYKRIDVSKLSLQYDSNVTQYTNETMRLEDPTNGQSSIITQVHLQKTMPKFLNPGDVVVCETGSFQFSVRDFAFPSQLKYISQGFFLSIGMALPAALGVGIAMQDHSNAHINGGNVKEDYKPRLILFEGDGAAQMTIQELSTILKCNIPLEVIIWNNNGYTIERAIMGPTRSYNDVMSWKWTKLFEAFGDFDGKYTNSTLIQCPSKLALKLEELKNSNKRSGIELLEVKLGELDFPEQLKCMVEAAALKRNKK
# B5: KgdMs: Enzyme candidate for BDO biosynthetic pathway step A5, SEQ ID NO. 69 (protein, listed as Mycobacterium smegmatis)
# chain: MSSSPSPFGQNEWLVEEMYRKFRDDPSSVDPSWHEFLVDYSPEPTTDSASNGRTTTAAPVTPPTPAPAPAPEPKAAPKPAAKTEAKPAKPAKSATPAKGDESQILRGAAAAVVKNMNASLEVPTATSVRAIPAKLMIDNRVVINNHLKRTRGGKISFTHLLGYAIVQAVKKFPNMNRHFAVVDGKPTAITPAHTNLGLAIDLQGKDGNRSLVVAAIKRCETMRFGQFIAAYEDIVRRARDGKLTAEDFSGVTISLTNPGTLGTVHSVPRLMQGQGAIIGAGAMEYPAEFQGASEERIADLGIGKLITLTSTYDHRIIQGAESGDFLRTIHQLLLDDDFFDEIFRELGIPYEPVRWRTDNPDSIEDKNARVIELIAAYRNRGHLMADIDPLRLDNTRFRSHPDLDVNSHGLTLWDLDREFKVDGFAGVQRKKLRDILSVLRDAYCRHVGVEYTHILEPEQQRWIQERVETKHDKPTVAEQKYILSKLNAAEAFETFLQTKYVGQKRFSLEGAETVIPMMDAVIDQCAEHGLDEVVIAMPHRGRLNVLANIVGKPYSQIFSEFEGNLNPSQAHGSGDVKYHLGATGTYIQMFGDNDIEVSLTANPSHLEAVDPVLEGLVRAKQDLLDTGEEGSDNRFSVVPLMLHGDAAFAGQGVVAETLNLALLRGYRTGGTIHIVVNNQIGFTTAPTDSRSSEYCTDVAKMIGAPIFHVNGDDPEACAWVARLAVDFRQAFKKDVVIDMLCYRRRGHNEGDDPSMTQPYMYDVIDTKRGSRKAYTEALIGRGDISMKEAEDALRDYQGQLERVFNEVRELEKHEIEPSESVEADQQIPSKLATAVDKAMLQRIGDAHLALPEGFTVHPRVRPVLEKRREMAYEGRIDWAFAELLALGSLIAEGKLVRLSGQDTQRGTFTQRHAVIVDRKTGEEFTPLQLLATNPDGTPTGGKFLVYNSALSEFAAVGFEYGYSVGNPDAMVLWEAQFGDFVNGAQSIIDEFISSGEAKWGQLSDVVLLLPHGHEGQGPDHTSGRIERFLQLWAEGSMTIAMPSTPANYFHLLRRHGKDGIQRPLIVFTPKSMLRNKAAVSDIRDFTESKFRSVLEEPMYTDGEGDRNKVTRLLLTSGKIYYELAARKAKENREDVAIVRIEQLAPLPRRRLAETLDRYPNVKEKFWVQEEPANQGAWPSFGLTLPEILPDHFTGLKRISRRAMSAPSSGSSKVHAVEQQEILDTAFG
# B6: LysAEc: Enzyme candidate for BDO biosynthetic pathway step A5, SEQ ID NO. 66 (protein, listed as Escherichia coli)
# chain: MPHSLFSTDTDLTAENLLRLPAEFGCPVWVYDAQIIRRQIAALKQFDVVRFAQKACSNIHILRLMREQGVKVDSVSLGEIERALAAGYNPQTHPDDIVFTADVIDQATLERVSELQIPVNAGSVDMLDQLGQVSPGHRVWLRVNPGFGHGHSQKTNTGGENSKHGIWYTDLPAALDVIQRHHLQLVGIHMHIGSGVDYAHLEQVCGAMVRQVIEFGQDLQAISAGGGLSVPYQQGEEAVDTEHYYGLWNAAREQIARHLGHPVKLEIEPGRFLVAQSGVLITQVRSVKQMGSRHFVLVDAGFNDLMRPAMYGSYHHISALAADGRSLEHAPTVETVVAGPLCESGDVFTQQEGGNVETRALPEVKAGDYLVLHDTGAYGASMSSNYNSRPLLPEVLFDNGQARLIRRRQTIEELLALELL
# B7: YiaQEc: Enzyme candidate for BDO biosynthetic pathway step A5, SEQ ID NO. 67 (protein, listed as Escherichia coli)
# chain: MSRPLLQLALDHSSLEAAQRDVTLLKDSVDIVEAGTILCLNEGLGAVKALREQCPDKIIVADWKVADAGETLAQQAFGAGANWMTIICAAPLATVEKGHAMAQRCGGEIQIELFGNWTLDDARDWHRIGVRQAIYHRGRDAQASGQQWGEADLARMKALSDIGLELSITGGITPADLPLFKDIRVKAFIAGRALAGAANPAQVAGDFHAQIDAIWGGARA
# Tested on: L-glutamate 5-semialdehyde (GSA)
# Experiment: Enzyme assay, oxidoreductase (step A3), cell lysates
# Assay type: biochemical
# Design: key: +: measureable activity detected in the assay; −: no measurable activity detected in the assay
# Conditions: BDO biosynthetic pathway step A3
# Description: (§1) Enzyme expression and crude lysate preparation. The enzymatic activity of each candidate enzyme is evaluated, first in E. coli and subsequently in C. glutamicum. It will be apparent to one of skill in the art that the expression and lysate preparations may need to be modified depending on the host cell and recombinant gene of interest.
# (§2) E. coli: E. coli strains transformed with expression clones, for example, pUC18 or MB4124 based clones having a medium strong constitutive promoter regulating the recombinant gene of interest, are grown aerobically in LB medium (Difco) containing the appropriate antibiotic(s). At an OD600 of 0.5, IPTG is added to a final concentration of 0.25 mM. The cultures are grown to a final OD600 of 1.5 at which time the cells are collected and harvested by centrifugation. Cell pellets are resuspended in BugBuster (Novagen) reagent containing benzonase and lysozyme. Alternatively, E. coli strains transformed with expression clones, are grown overnight aerobically at 37° C. in BHI containing the appropriate antibiotic(s). 300 μL of fresh overnight culture is used to inoculate 2.7 mL BHI containing 0.25 mM IPTG and the appropriate antibiotic. The cultures are grown aerobically for 4-5 hours at 37° C. at which time the cells are collected and harvested by centrifugation. Cell pellets are frozen at −80° C. for at least 15 minutes, then thawed and resuspended in BugBuster (Novagen) reagent. Lysis and lysate collection are performed according to the manufacturer's instructions and, for example, may involve use of a sonicator and/or French press. Cleared lysates are stored on ice until enzyme assays are performed.
# C. glutamicum: C. glutamicum strains transformed with MB4124 expression clones containing the recombinant gene of interest are grown aerobically in BHI broth supplemented with the proper antibiotic(s). At an OD600 of 0.5, IPTG is added to a final concentration of 0.25 mM. The cultures are grown to a final OD600 of 1.5 at which time the cells are collected and harvested by centrifugation. The pellet is washed once in one volume of water and resuspended in lysis buffer (1.0 ml 1.0 M HEPES buffer, pH 7.5, 0.5 ml 1M KOH, 10 μl 0.5M EDTA, protease inhibitor cocktail, water to 5 ml; the final pH will vary depending on the individual enzyme being tested) and one volume of 0.1 mm acid washed glass beads. The mixture is repeatedly alternately vortexed and held on ice for 15 seconds, eight times. After centrifugation for 5 min at 4,000 rpm, the supernatant lysate is removed and respun for 20 min at 10,000 rpm. Alternatively, C. glutamicum strains transformed with MB4124 expression clones containing the recombinant gene of interest are grown aerobically overnight in BHI broth supplemented with the proper antibiotic(s). Five mL of fresh overnight culture is used to inoculate 200 mL BHI containing 0.25 mM IPTG and the appropriate antibiotic. The cultures are grown aerobically at 30° C. for 5-7 hours at which time the cells are collected and harvested by centrifugation at 4° C. The pellet is resuspended in 15 mL ice cold 39 mM KH2PO4, 61 mM K2HPO4, 0.5 M KCl and lysed using a BioSpec BeadBeater and following the manufacturer's instructions. […]
# Protein Assays. Protein concentrations in lysates are determined according to the methods of Bradford et al. (Anal. Biochem. 72:248-254 [1976]) or by the method of Smith et al. (Anal. Biochem. 150(1):76-85 [1985]) and lysates are assayed according to the methods below. […]
row,Molecule,Enzyme Assay
1,B1,−
2,B2,−

# Tested on: 5-hydroxy-2-oxopentanoate
# Experiment: Enzyme assay, decarboxylase (step A5), aldehyde dehydrogenase linked reaction
# Assay type: biochemical
# Design: key: +: measureable activity detected in the assay; −: no measurable activity detected in the assay
# Conditions: BDO biosynthetic pathway step A5
# Description: as §1, §2
# C. glutamicum: C. glutamicum strains transformed with MB4124 expression clones containing the recombinant gene of interest are grown aerobically in BHI broth supplemented with the proper antibiotic(s). At an OD600 of 0.5, IPTG is added to a final concentration of 0.25 mM. The cultures are grown to a final OD600 of 1.5 at which time the cells are collected and harvested by centrifugation. The pellet is washed once in one volume of water and resuspended in lysis buffer (1.0 ml 1.0 M HEPES buffer, pH 7.5, 0.5 ml 1M KOH, 10 μl 0.5M EDTA, protease inhibitor cocktail, water to 5 ml; the final pH will vary depending on the individual enzyme being tested) and one volume of 0.1 mm acid washed glass beads. The mixture is repeatedly alternately vortexed and held on ice for 15 seconds, eight times. After centrifugation for 5 min at 4,000 rpm, the supernatant lysate is removed and respun for 20 min at 10,000 rpm. Alternatively, C. glutamicum strains transformed with MB4124 expression clones containing the recombinant gene of interest are grown aerobically overnight in BHI broth supplemented with the proper antibiotic(s). Five mL of fresh overnight culture is used to inoculate 200 mL BHI containing 0.25 mM IPTG and the appropriate antibiotic. The cultures are grown aerobically at 30° C. for 5-7 hours at which time the cells are collected and harvested by centrifugation at 4° C. The pellet is resuspended in 15 mL ice cold 39 mM KH2PO4, 61 mM K2HPO4, 0.5 M KCl and lysed using a BioSpec BeadBeater and following the manufacturer's instructions. The lysate is centrifuged at 16,000 RPM at 4° C. for 30 minutes and the supernatant retained on ice as the extract.
# Protein Assays. Protein concentrations in lysates are determined according to the methods of Bradford et al. (Anal. Biochem. 72:248-254 [1976]) or by the method of Smith et al. (Anal. Biochem. 150(1):76-85 [1985]) and lysates are assayed according to the methods below.
# Enzyme Assays. Enzyme assays are performed on the cell lysates prepared above. The activity for each recombinant enzyme is compared to a lysate from a vector only control culture which is generated in a fashion identical to the recombinant enzyme lysate. […]
row,Molecule,Enzyme Assay
1,B3,−
2,B4,−
3,B5,−
4,B6,−
5,B7,−
